Tests used:
[1] = target: LxT peptide library (x-x-x-x-Leu-x-Thr-x-x-x peptides with a fixed lysine tail K-K-K)
[2] = target: MBP-AMPKa (1-312) bacterial fusion protein
[3] = target: R-T peptide library (arginine fixed at the -1 position of a threonine phosphoacceptor)
[4] = target: T1, STRAD (human, from pCDNA4 HisMax), Q7RTN6
T1 chain: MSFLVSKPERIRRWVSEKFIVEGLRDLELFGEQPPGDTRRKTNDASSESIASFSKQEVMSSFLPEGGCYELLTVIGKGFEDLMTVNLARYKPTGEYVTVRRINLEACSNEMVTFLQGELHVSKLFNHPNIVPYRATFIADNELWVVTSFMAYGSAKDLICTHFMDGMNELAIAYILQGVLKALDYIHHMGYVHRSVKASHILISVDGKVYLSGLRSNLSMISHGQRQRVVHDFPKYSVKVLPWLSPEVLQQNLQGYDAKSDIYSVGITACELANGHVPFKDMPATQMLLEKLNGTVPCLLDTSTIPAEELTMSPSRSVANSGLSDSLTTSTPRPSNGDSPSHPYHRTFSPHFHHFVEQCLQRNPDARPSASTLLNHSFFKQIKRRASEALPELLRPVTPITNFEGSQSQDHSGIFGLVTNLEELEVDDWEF

Row | Protein | phosphorylation of degenerate peptide libraries (32P incorporation, p81 paper) [1] | AMPK kinase activity towards the SAMS peptide after in vitro phosphorylation by LKB1 [2] | trans-phosphorylation of MBP-AMPKα in vitro [2] | phosphorylation of degenerate peptide libraries (32P incorporation, p81 paper) [3] | in vitro phosphorylation of MBP-AMPKα (32P incorporation; phospho-Thr172 immunoblot) [2] | LKB1 autophosphorylation in vitro [4] | phosphorylation of the SAMS peptide (32P γ-ATP) (SAMS peptide) | AMPK kinase activity towards the SAMS peptide after in vitro kinase reaction with LKB1 [2]
1 | STRAD-activated LKB1 (Flag-tagged wild-type human LKB1 co-expressed with STRAD, Flag immunoprecipitate) (protein) chain 1: MEVVDPQQLGMFTEGELMSVGMDTFIHRIDSTEVIYQPRRKRAKLIGKYLMGDLLGEGSYGKVKEVLDSETLCRRAVKILKKKKLRRIPNGEANVKKEIQLLRRLRHKNVIQLVDVLYNEEKQKMYMVMEYCVCGMQEMLDSVPEKRFPVCQAHGYFCQLIDGLEYLHSQGIVHKDIKPGNLLLTTGGTLKISDLGVAEALHPFAADDTCRTSQGSPAFQPPEIANGLDTFSGFKVDIWSAGVTLYNITTGLYPFEGDNIYKLFENIGKGSYAIPGDCGPPLSDLLKGMLEYEPAKRFSIRQIRQHSWFRKKHPPAEAPVPIPPSPDTKDRWRSMTVVPYLEDLHGADEDEDLFDIEDDIIYTQDFTVPGQVPEEEASHNGQRRGLPKAVCMNGTEAAQLSTKSRAEGRAPNPARKACSASSKIRRLSACKQQ chain 2: MSFLVSKPERIRRWVSEKFIVEGLRDLELFGEQPPGDTRRKTNDASSESIASFSKQEVMSSFLPEGGCYELLTVIGKGFEDLMTVNLARYKPTGEYVTVRRINLEACSNEMVTFLQGELHVSKLFNHPNIVPYRATFIADNELWVVTSFMAYGSAKDLICTHFMDGMNELAIAYILQGVLKALDYIHHMGYVHRSVKASHILISVDGKVYLSGLRSNLSMISHGQRQRVVHDFPKYSVKVLPWLSPEVLQQNLQGYDAKSDIYSVGITACELANGHVPFKDMPATQMLLEKLNGTVPCLLDTSTIPAEELTMSPSRSVANSGLSDSLTTSTPRPSNGDSPSHPYHRTFSPHFHHFVEQCLQRNPDARPSASTLLNHSFFKQIKRRASEALPELLRPVTPITNFEGSQSQDHSGIFGLVTNLEELEVDDWEF | leucine at the -2 position was strongly selected | induced AMPK kinase activity an average of 27 and 50 fold, respectively | co-expression of LKB1 with STRAD led to a dramatic proportional increase in LKB1 autophosphorylation and trans-phosphorylation of MBP-AMPKα | Arginine in the -1 position was selected over random amino acids | – | – | – | –
2 | Flag-tagged human LKB1, wild-type, immunoprecipitated from HT1080 cells (protein) MEVVDPQQLGMFTEGELMSVGMDTFIHRIDSTEVIYQPRRKRAKLIGKYLMGDLLGEGSYGKVKEVLDSETLCRRAVKILKKKKLRRIPNGEANVKKEIQLLRRLRHKNVIQLVDVLYNEEKQKMYMVMEYCVCGMQEMLDSVPEKRFPVCQAHGYFCQLIDGLEYLHSQGIVHKDIKPGNLLLTTGGTLKISDLGVAEALHPFAADDTCRTSQGSPAFQPPEIANGLDTFSGFKVDIWSAGVTLYNITTGLYPFEGDNIYKLFENIGKGSYAIPGDCGPPLSDLLKGMLEYEPAKRFSIRQIRQHSWFRKKHPPAEAPVPIPPSPDTKDRWRSMTVVPYLEDLHGADEDEDLFDIEDDIIYTQDFTVPGQVPEEEASHNGQRRGLPKAVCMNGTEAAQLSTKSRAEGRAPNPARKACSASSKIRRLSACKQQ | – | induced AMPK kinase activity an average of 27 and 50 fold, respectively | – | – | wild-type but not kinase-dead LKB1 immunoprecipitated from mammalian cells efficiently phosphorylated a bacterially expressed maltose-binding protein (MBP) fusion product of the AMPKα catalytic subunit in vitro | co-expression of LKB1 with STRAD led to a dramatic proportional increase in LKB1 autophosphorylation | LKB1 alone was incapable of detectably phosphorylating the SAMS peptide | –
3 | Flag-tagged human LKB1, kinase dead (K78I), immunoprecipitated from HT1080 cells (protein) MEVVDPQQLGMFTEGELMSVGMDTFIHRIDSTEVIYQPRRKRAKLIGKYLMGDLLGEGSYGKVKEVLDSETLCRRAVIILKKKKLRRIPNGEANVKKEIQLLRRLRHKNVIQLVDVLYNEEKQKMYMVMEYCVCGMQEMLDSVPEKRFPVCQAHGYFCQLIDGLEYLHSQGIVHKDIKPGNLLLTTGGTLKISDLGVAEALHPFAADDTCRTSQGSPAFQPPEIANGLDTFSGFKVDIWSAGVTLYNITTGLYPFEGDNIYKLFENIGKGSYAIPGDCGPPLSDLLKGMLEYEPAKRFSIRQIRQHSWFRKKHPPAEAPVPIPPSPDTKDRWRSMTVVPYLEDLHGADEDEDLFDIEDDIIYTQDFTVPGQVPEEEASHNGQRRGLPKAVCMNGTEAAQLSTKSRAEGRAPNPARKACSASSKIRRLSACKQQ | – | – | – | – | wild-type but not kinase-dead LKB1 immunoprecipitated from mammalian cells efficiently phosphorylated | – | – | Kinase-inactive LKB1 alone or coexpressed with STRAD was unable to activate AMPK

From patent US20080194019
